In publication PMC8044227, “Cardiolipin enhances the enzymatic activity of cytochrome bd and cytochrome bo3 solubilized in dodecyl-maltoside” (Scientific Reports, 2021) one finds Km data, which are given here for two proteins.

Substrate in the data set: COc1c(O)c(C)c(CC=C(C)C)c(O)c1OC
Put plainly: O2 consumption, Clark-type electrode. The data set is classed as biochemical, Escherichia coli. To be noted: no cardiolipin, 0.025% DDM, 50 mM MOPS, 100 mM NaCl, pH 7.5, 37 °C, 10 mM DTT.

B1: cytochrome bd (E. coli) (Escherichia coli K-12) (protein)
chain: MLDIVELSRLQFALTAMYHFLFVPLTLGMAFLLAIMETVYVLSGKQIYKDMTKFWGKLFGINFALGVATGLTMEFQFGTNWSYYSHYVGDIFGAPLAIEGLMAFFLESTFVGLFFFGWDRLGKVQHMCVTWLVALGSNLSALWILVANGWMQNPIASDFNFETMRMEMVSFSELVLNPVAQVKFVHTVASGYVTGAMFILGISAWYMLKGRDFAFAKRSFAIAASFGMAAVLSVIVLGDESGYEMGDVQKTKLAAIEAEWETQPAPAAFTLFGIPDQEEETNKFAIQIPYALGIIATRSVDTPVIGLKELMVQHEERIRNGMKAYSLLEQLRSGSTDQAVRDQFNSMKKDLGYGLLLKRYTPNVADATEAQIQQATKDSIPRVAPLYFAFRIMVACGFLLLAIIALSFWSVIRNRIGEKKWLLRAALYGIPLPWIAVEAGWFVAEYGRQPWAIGEVLPTAVANSSLTAGDLIFSMVLICGLYTLFLVAELFLMFKFARLGPSSLKTGRYHFEQSSTTTQPAR
notes: CydABX complex, Strep-tag, expressed in E. coli MB43, streptactin-purified in DDM
As to B1, the Km (usually the concentration of substrate that gives half-maximal velocity) is on record as 95 ± 16 µM.

B2: cytochrome bo3 (E. coli) (Escherichia coli K-12) (protein)
chain: MFGKLSLDAVPFHEPIVMVTIAGIILGGLALVGLITYFGKWTYLWKEWLTSVDHKRLGIMYIIVAIVMLLRGFADAIMMRSQQALASAGEAGFLPPHHYDQIFTAHGVIMIFFVAMPFVIGLMNLVVPLQIGARDVAFPFLNNLSFWFTVVGVILVNVSLGVGEFAQTGWLAYPPLSGIEYSPGVGVDYWIWSLQLSGIGTTLTGINFFVTILKMRAPGMTMFKMPVFTWASLCANVLIIASFPILTVTVALLTLDRYLGTHFFTNDMGGNMMMYINLIWAWGHPEVYILILPVFGVFSEIAATFSRKRLFGYTSLVWATVCITVLSFIVWLHHFFTMGAGANVNAFFGITTMIIAIPTGVKIFNWLFTMYQGRIVFHSAMLWTIGFIVTFSVGGMTGVLLAVPGADFVLHNSLFLIAHFHNVIIGGVVFGCFAGMTYWWPKAFGFKLNETWGKRAFWFWIIGFFVAFMPLYALGFMGMTRRLSQQIDPQFHTMLMIAASGAVLIALGILCLVIQMYVSIRDRDQNRDLTGDPWGGRTLEWATSSPPPFYNFAVVPHVHERDAFWEMKEKGEAYKKPDHYEEIHMPKNSGAGIVIAAFSTIFGFAMIWHIWWLAIVGFAGMIITWIVKSFDEDVDYYVPVAEIEKLENQHFDEITKAGLKNGN
notes: His-tagged complex overexpressed in E. coli GO105/pJRhisA, Ni-Sepharose-purified in DDM
For B2, the Km was 56 ± 13 µM.
